Data from PMC10153361, “Mechanism of imidazole inhibition of a GH1 β‐glucosidase” (FEBS Open Bio, 2023).

Substrate: O=[N+]([O-])c1ccc(O[C@@H]2O[C@H](CO)[C@@H](O)[C@H](O)[C@H]2O)cc1
Assay: purified protein
Format: biochemical, Spodoptera frugiperda
Settings: 100 mM phosphate pH 6.0, 30 °C

B1: Sfβgly (GH1 β-glucosidase from Spodoptera frugiperda) (Spodoptera frugiperda) (protein)
chain: QQRRFPDDFLFGTATASYQIEGAWDEDGKGENIWDYMVHNTPEVIRDLSNGDIAADSYHNYKRDVEMMRELGLDAYRFSLSWARILPTGMANEVNPAGIAFYNNYIDEMLKYNITPLITLYHWDLPQKLQELGGFANPLISDWFEDYARVVFENFGDRVKMFITFNEPREICFEGYGSATKAPILNATAMGAYLCAKNLVTAHAKAYYLYDREFRPVQGGQCGITISVNWFGPATPTPEDEMAAELRRQGEWGIYAHPIFSAEGGFPKELSDKIAEKSAQQGYPWSRLPEFTEEEKAFVRGTSDLIGVNHYTAFLVSATERKGPYPVPSLLDDVDTGSWADDSWLKSASAWLTLAPNSIHTALTHLNNLYNKPVFYITENGWSTDESRENSLIDDDRIQYYRASMESLLNCLDDGINLKGYMAWSLMDNFEWMEGYIERFGLYEVDFSDPARTRTPRKAAFVYKHIIKHRVVDYEYEPETMVMTIDEGH
notes: recombinant, E. coli BL21(DE3), vector pET46, Ni-NTA purified; secreted digestive midgut enzyme; catalytic residues E187 and E399
Km: 1730 ± 40 µM | kcat: 1.33 ± 0.333 s⁻¹
